In assay [1] the target is HIV-1 envelope glycoprotein (gp120) of virus 7141 (HIV-1). Description: cell-based or functional assay.
Assay [2] addresses HIV-1 envelope glycoprotein (gp120) of virus 92US727 (HIV-1). Description: cell-based or functional assay.
In assay [3] the target is HIV-1 envelope glycoprotein (gp120) of virus VS001 (HIV-1). Kind of assay: cell-based or functional assay.
For the next assay, the target named is BSA (UniProt P02769). Kind of assay: single-point ELISA.

Numbering of substitutions follows the chain as printed.

B1: 3.1.9-1 (antibody, human IgG1, kappa, V domains shown)
VH: QVQLLQSGAAVTKPGASVRVSCEASGYNIRDYFIHWWRQAPGQGLQWVGWINPKTGQPNNPRQFQGRVSLTRHASWDFDTFSFYMDLKALRSDDTAVYFCARQRSDYWDFDVWGSGTQVTVSS
VL: DIQMTQSPSSLSARVGDTATITCQANGYLNWYQQRRGKAPKLLIYDGSKLERGVPARFSGRRWGQEYNLTINNLQPEDVATYFCQVYEFFGPGTRLDLKR
For B1, the Neutralization IC50 in assay [1] is 4.35 µg/mL; in assay [2], 3.54 µg/mL; in assay [3], 0.16 µg/mL.

B2: 2.3.17-1 (antibody, human IgG1, kappa, V domains shown)
VH: B1 VH with Q3H, L5S, L90V, V97I
VL: B1 VL with N68H
B2: the Neutralization IC50 in assay [1] is 31.3 µg/mL; in assay [2] it was greater than 50 µg/mL; in assay [3], 4.54 µg/mL.

B3: 2.2.13-1 (antibody, human IgG1, kappa, V domains shown)
VH: B1 VH with Q3H, L5S, N28K, Y32H, L90V, V97I
VL: B1 VL with T18R, R61S, N68I, N72S, N73S
For the molecule B3, the Neutralization IC50 in assay [1] is 3.8 µg/mL; in assay [2] it was greater than 50 µg/mL; in assay [3], 1.48 µg/mL.

B4: 2.3.9-1 (antibody, human IgG1, kappa, V domains shown)
VH: B1 VH with Q3H, L5S, L90V, V97I
VL: B1 VL
With B4, the values for the Neutralization IC50 in assay [1], in assay [2] and in assay [3] were 2.56 µg/mL, 11.1 µg/mL and 0.22 µg/mL, respectively.

B5: 1.1.104-1 (antibody, human IgG1, kappa, V domains shown)
VH: B1 VH
VL: B1 VL with R14S, A56S, N68T, V79I
Take B5: the Neutralization IC50 was 5.13 µg/mL in assay [1], greater than 50 µg/mL in assay [2] and 0.45 µg/mL in assay [3].

B6: 3.1.7-1 (antibody, human IgG1, kappa, V domains shown)
VH: B1 VH
VL: B1 VL with T18R, R61S, N68T, N72S, N73S
For B6, the results for the Neutralization IC50 in assay [1], in assay [2] and in assay [3] were 5.65 µg/mL, greater than 50 µg/mL and 0.3 µg/mL, respectively.

B7: 2.2.17-1 (antibody, human IgG1, kappa, V domains shown)
VH: B1 VH with Q3H, L5S, N28K, Y32H, L90V, V97I
VL: B1 VL with N68H
For the molecule B7, the Neutralization IC50 in assay [1] was 6.28 µg/mL; in assay [2] it was greater than 50 µg/mL; in assay [3], 4.38 µg/mL.

B8: 1.1.78-1 (antibody, human IgG1, kappa, V domains shown)
VH: B1 VH
VL: B1 VL with R14S, A56S, N68H, V79I
Turning to B8, the Neutralization IC50 in assay [1] is 29.5 µg/mL; in assay [2] it was greater than 50 µg/mL; in assay [3] it was 3.3 µg/mL.

B9: 3.1.17-1 (antibody, human IgG1, kappa, V domains shown)
VH: B1 VH
VL: B1 VL with N68H
On to B9, for which the Neutralization IC50 in assay [1] is 25.5 µg/mL; in assay [2], greater than 50 µg/mL; in assay [3] it was 2.21 µg/mL.

B10: 1.12.17-1 (antibody, human IgG1, kappa, V domains shown)
VH: B1 VH with W37V
VL: B1 VL with R14S, A19V, A56S, V79I
For the molecule B10, the ELISA (A450) in the assay with BSA was found to be 0.06 A450.

B11: 2.2.7-1 (antibody, human IgG1, kappa, V domains shown)
VH: B1 VH with Q3H, L5S, N28K, Y32H, L90V, V97I
VL: B1 VL with T18R, R61S, N68T, N72S, N73S
As for B11, the Neutralization IC50 in assay [1] was 1.58 µg/mL; in assay [2] it was greater than 50 µg/mL; in assay [3] it was 0.27 µg/mL.

B12: 2.3.18-1 (antibody, human IgG1, kappa, V domains shown)
VH: B1 VH with Q3H, L5S, L90V, V97I
VL: B1 VL with T18R, R61S, N68H, N72S, N73S
With B12, the Neutralization IC50 in assay [1] was greater than 23 µg/mL; in assay [2], greater than 23 µg/mL; in assay [3], 2.37 µg/mL.

B13: 1.1.102-1 (antibody, human IgG1, kappa, V domains shown)
VH: B1 VH
VL: B1 VL with R14S, T18R, A56S, R61S, N68H, N72S, N73S, V79I
On to B13, for which the Neutralization IC50 in assay [1] is 22.7 µg/mL; in assay [2], greater than 50 µg/mL; in assay [3], 3 µg/mL.

B14: 2.3.15-1 (antibody, human IgG1, kappa, V domains shown)
VH: B1 VH with Q3H, L5S, L90V, V97I
VL: B1 VL with N68T
Consider B14, for which the Neutralization IC50 in assay [1] was 5.93 µg/mL; in assay [2], greater than 50 µg/mL; in assay [3], 0.85 µg/mL.

B15: 2.3.13-1 (antibody, human IgG1, kappa, V domains shown)
VH: B1 VH with Q3H, L5S, L90V, V97I
VL: B1 VL with T18R, R61S, N68I, N72S, N73S
For the molecule B15, the Neutralization IC50 in assay [1] was 15.5 µg/mL; in assay [2], greater than 38 µg/mL; in assay [3], 1.5 µg/mL.

B16: 2.3.7-1 (antibody, human IgG1, kappa, V domains shown)
VH: B1 VH with Q3H, L5S, L90V, V97I
VL: B1 VL with T18R, R61S, N68T, N72S, N73S
Turning to B16, the Neutralization IC50 was 5.08 µg/mL in assay [1], greater than 50 µg/mL in assay [2] and 0.47 µg/mL in assay [3].

B17: 1.1.119-1 (antibody, human IgG1, kappa, V domains shown)
VH: B1 VH
VL: B1 VL with R14S, T18R, A56S, R61S, N68T, N72S, N73S, V79I
B17: the figures for the Neutralization IC50 in assay [1], in assay [2] and in assay [3] were 6.92 µg/mL, greater than 50 µg/mL and 0.39 µg/mL, respectively.

B18: 1.31.35-1 (antibody, human IgG1, kappa, V domains shown)
VH: B1 VH with L5V, A10E, V97T
VL: DIQMTQSPSSLSASVGDRVTITCQANGYLNWYQQKPGKAPKLLIYDGSNLETGVPSRFSGSRWGQEYTLTISSLQPEDIATYFCQVYEFVGPGTNLDIKR
Turning to B18, the ELISA (A450) with BSA turned out to be 0.06 A450.

B19: 1.1.118-1 (antibody, human IgG1, kappa, V domains shown)
VH: B1 VH
VL: B1 VL with R14S, T18R, A56S, R61S, N68I, N72S, N73S, V79I
For B19, the values for the Neutralization IC50 in assay [1], in assay [2] and in assay [3] were 20.2 µg/mL, greater than 50 µg/mL and 2.4 µg/mL, respectively.

B20: 3.1.13-1 (antibody, human IgG1, kappa, V domains shown)
VH: B1 VH
VL: B1 VL with T18R, R61S, N68I, N72S, N73S
For B20, the Neutralization IC50 in assay [1] was 13.2 µg/mL; in assay [2], greater than 21 µg/mL; in assay [3], 0.56 µg/mL.

B21: 2.2.12-1 (antibody, human IgG1, kappa, V domains shown)
VH: B1 VH with Q3H, L5S, N28K, Y32H, L90V, V97I
VL: B1 VL with N68I
In the case of B21, the values for the Neutralization IC50 in assay [1], in assay [2] and in assay [3] were 7.08 µg/mL, greater than 50 µg/mL and 2.1 µg/mL, respectively.

B22: 3.1.15-1 (antibody, human IgG1, kappa, V domains shown)
VH: B1 VH
VL: B1 VL with N68T
Consider B22, for which the Neutralization IC50 was 9.1 µg/mL in assay [1], greater than 33 µg/mL in assay [2] and 0.49 µg/mL in assay [3].

B23: 3.1.12-1 (antibody, human IgG1, kappa, V domains shown)
VH: B1 VH
VL: B1 VL with N68I
Regarding B23, the Neutralization IC50 is 24.5 µg/mL in assay [1], greater than 41 µg/mL in assay [2] and 2.41 µg/mL in assay [3].

B24: 1.14.17-1 (antibody, human IgG1, kappa, V domains shown)
VH: B1 VH with I34M, W37V, F83A
VL: B1 VL with R14S, A19V, A56S, V79I
In the case of B24, the ELISA (A450) with BSA amounted to 0.1 A450.

B25: 2.2.9-1 (antibody, human IgG1, kappa, V domains shown)
VH: B1 VH with Q3H, L5S, N28K, Y32H, L90V, V97I
VL: B1 VL
Turning to B25, the Neutralization IC50 in assay [1] was 1.75 µg/mL; in assay [2], 13.1 µg/mL; in assay [3], 0.15 µg/mL.

B26: 1.1.35-1 (antibody, human IgG1, kappa, V domains shown)
VH: B1 VH
VL: B18 VL
In the assay with BSA, B26 had an ELISA (A450) of 0.08 A450.

B27: 2.3.12-1 (antibody, human IgG1, kappa, V domains shown)
VH: B1 VH with Q3H, L5S, L90V, V97I
VL: B1 VL with N68I
Turning to B27, the values for the Neutralization IC50 in assay [1], in assay [2] and in assay [3] were 23.8 µg/mL, greater than 50 µg/mL and 1.92 µg/mL, respectively.

B28: 1.13.17-1 (antibody, human IgG1, kappa, V domains shown)
VH: B1 VH with I34M, W37V
VL: B1 VL with R14S, A19V, A56S, V79I
Consider B28, for which, in the assay with BSA, the ELISA (A450) came to 0.06 A450.

B29: 1.1.117-1 (antibody, human IgG1, kappa, V domains shown)
VH: B1 VH
VL: B1 VL with R14S, A56S, N68I, V79I
B29: the figures for the Neutralization IC50 in assay [1], in assay [2] and in assay [3] were 16.9 µg/mL, greater than 50 µg/mL and 3.03 µg/mL, respectively.

B30: 2.2.18-1 (antibody, human IgG1, kappa, V domains shown)
VH: B1 VH with Q3H, L5S, N28K, Y32H, L90V, V97I
VL: B1 VL with T18R, R61S, N68H, N72S, N73S
For the molecule B30, the Neutralization IC50 in assay [1] is 5.04 µg/mL; in assay [2], greater than 34 µg/mL; in assay [3], 2.51 µg/mL.

B31: 3.1.18-1 (antibody, human IgG1, kappa, V domains shown)
VH: B1 VH
VL: B1 VL with T18R, R61S, N68H, N72S, N73S
For the molecule B31, the Neutralization IC50 was greater than 9.8 µg/mL in assay [1], greater than 9.8 µg/mL in assay [2] and 3.52 µg/mL in assay [3].

B32: 2.2.15-1 (antibody, human IgG1, kappa, V domains shown)
VH: B1 VH with Q3H, L5S, N28K, Y32H, L90V, V97I
VL: B1 VL with N68T
Consider B32, for which the figures for the Neutralization IC50 in assay [1], in assay [2] and in assay [3] were 1.99 µg/mL, greater than 50 µg/mL and 0.37 µg/mL, respectively.

The record behind these values is US20220089698A1.
